Consider 167 variants from the Human Domainome abundance scans (Beltran et al. 2025).

± gives the uncertainty stated by the source.

B1: Cold shock protein CspB, residues 1 to 66; numbered along this chain, P41016 (parent)
chain: MQRGKVKWFNNEKGYGFIEVEGGSDVFVHFTAIQGEGFKTLEEGQEVSFEIVQGNRGPQAANVVKL

This series covers variants of B1. Kind of series: abundance fitness (aPCA) (normalised: wild type 0, dead -1); higher = more abundant; growth selection in yeast, the domain comes from the species named. The conditions noted are these: Bacillus caldolyticus.
As for G23D, the abundance fitness turned out to be 0.026 ± 0.073. For the variant G23F, the abundance fitness is -0.034 ± 0.049. Then G23R, with 0.028 ± 0.037. Then G23Q, with 0.012 ± 0.055; and G23M, with 0 ± 0.048; and G23P, with -0.011 ± 0.045. For G23L, the abundance fitness is -0.003 ± 0.027. Then G23K, with 0.052 ± 0.057; and G23C, with 0.029 ± 0.059.

With G23I, the abundance fitness was -0.041 ± 0.055.

For G23A, the abundance fitness was determined as 0.03 ± 0.046. On to G23N, for which the abundance fitness is -0.066 ± 0.081.

As for G23H, the abundance fitness was -0.053 ± 0.08.

Regarding R3K, the abundance fitness is -0.046 ± 0.055. Then R3G, with -0.004 ± 0.031; and R3T, with -0.024 ± 0.059.

Take R3N: the abundance fitness was -0.061 ± 0.067. Then R3I, with -0.025 ± 0.081; and R3Y, with 0.027 ± 0.065; and R3C, with -0.076 ± 0.059. In the case of R3E, the abundance fitness was -0.019 ± 0.041. Then R3V, with -0.013 ± 0.034; and R3S, with -0.039 ± 0.031; and R3F, with -0.003 ± 0.062. Then R3M, with 0.019 ± 0.051; and R3D, with -0.023 ± 0.069. Then R3W, with -0.117 ± 0.041; and R3Q, with -0.021 ± 0.041; and V20I, with -0.014 ± 0.056.

Regarding V20A, the abundance fitness is -0.003 ± 0.035. Then V20W, with 0.056 ± 0.064; and V20Y, with -0.001 ± 0.061; and V20M, with -0.018 ± 0.049. Then V20S, with -0.011 ± 0.035.

For V20H, the abundance fitness was found to be 0.094 ± 0.14. Then V20N, with -0.028 ± 0.094; and V20P, with 0.018 ± 0.041. Then V20K, with 0.055 ± 0.056. Consider V20Q, for which the abundance fitness amounted to 0.046 ± 0.057. V20L: the abundance fitness was determined as 0 ± 0.029. Then V20R, with -0.006 ± 0.053. Then V20T, with 0.008 ± 0.044; and V20D, with -0.054 ± 0.054; and V20F, with -0.092 ± 0.056. Then V20E, with -0.002 ± 0.043; and F9V, with -0.239 ± 0.039; and F9W, with -0.092 ± 0.043.

Consider F9T, for which the abundance fitness was -0.306 ± 0.038. In the case of F9H, the abundance fitness is -0.567 ± 0.057. Then F9P, with -0.956 ± 0.069. F9E: the abundance fitness was -0.827 ± 0.088.

Take F9K: the abundance fitness was -0.389 ± 0.047. Then F9A, with -0.303 ± 0.037.

On to F9D, for which the abundance fitness was -0.881 ± 0.11. Regarding F9M, the abundance fitness was -0.233 ± 0.045.

For the variant F9Q, the abundance fitness is -0.854 ± 0.073. Regarding F9I, the abundance fitness was -0.272 ± 0.045. Then F9Y, with -0.119 ± 0.061; and F9N, with -0.854 ± 0.11; and F9R, with -0.583 ± 0.03. As for F9G, the abundance fitness is -0.939 ± 0.09. Then F9C, with -0.35 ± 0.038; and F9S, with -0.408 ± 0.028; and I18G, with -1.07 ± 0.15. Then I18M, with -0.208 ± 0.039; and I18P, with -1.19 ± 0.14; and I18H, with -0.812 ± 0.12. Then I18L, with 0.015 ± 0.031; and I18D, with -1.08 ± 0.31. On to I18N, for which the abundance fitness is -0.85 ± 0.13. Then I18F, with -0.297 ± 0.044. Regarding I18K, the abundance fitness is -0.926 ± 0.078.

For I18T, the abundance fitness is -0.721 ± 0.048. For I18C, the abundance fitness was -0.164 ± 0.064. Then I18A, with -0.272 ± 0.039; and I18Y, with -1.07 ± 0.18. Then I18W, with -0.973 ± 0.07. Then I18Q, with -1.12 ± 0.14. For F17E, the abundance fitness was -0.172 ± 0.049. Then F17S, with -0.171 ± 0.029; and F17K, with -0.138 ± 0.07; and F17Q, with -0.161 ± 0.042.

Turning to F17D, the abundance fitness was -0.558 ± 0.072. Then F17R, with -0.132 ± 0.032; and F17T, with -0.126 ± 0.053; and F17L, with -0.171 ± 0.025.

With F17G, the abundance fitness was -0.236 ± 0.037.

Take F17H: the abundance fitness was -0.151 ± 0.065. Then F17P, with -0.977 ± 0.061; and F17W, with -0.084 ± 0.042. Then F17V, with -0.165 ± 0.027; and F17I, with -0.128 ± 0.063. With F17C, the abundance fitness is -0.18 ± 0.052. Then F17M, with -0.139 ± 0.048; and F17Y, with -0.192 ± 0.048; and F17A, with -0.159 ± 0.039.

On to F17N, for which the abundance fitness was -0.171 ± 0.07.

Consider K7W, for which the abundance fitness was -0.49 ± 0.057.

Turning to K7V, the abundance fitness is -0.034 ± 0.028. Then K7L, with -0.058 ± 0.027. Then K7S, with -0.033 ± 0.026; and K7H, with -0.088 ± 0.046.

In the case of K7D, the abundance fitness is -0.199 ± 0.048. As for K7A, the abundance fitness is -0.002 ± 0.03. Then K7G, with -0.106 ± 0.031; and K7C, with -0.003 ± 0.035. Then K7F, with -0.3 ± 0.038; and K7T, with -0.052 ± 0.032.

With K7M, the abundance fitness is -0.072 ± 0.049. Then K7N, with -0.016 ± 0.04. Then K7Y, with -0.316 ± 0.042; and K7E, with -0.225 ± 0.055; and K7Q, with -0.07 ± 0.051.

In the case of K7I, the abundance fitness came to 0.02 ± 0.052.

On to K7P, for which the abundance fitness was -0.817 ± 0.057.

Take K7R: the abundance fitness is -0.045 ± 0.034. Then Y15K, with -0.189 ± 0.044; and Y15E, with -0.188 ± 0.041; and Y15F, with -0.047 ± 0.05.

On to Y15M, for which the abundance fitness was -0.138 ± 0.047.

For the variant Y15W, the abundance fitness turned out to be 0.023 ± 0.051.

Y15R: the abundance fitness was -0.227 ± 0.025. Then Y15C, with -0.186 ± 0.048; and Y15N, with -0.256 ± 0.054. Consider Y15P, for which the abundance fitness was -0.885 ± 0.073.

Consider Y15D, for which the abundance fitness is -0.332 ± 0.072. Then Y15H, with -0.089 ± 0.072; and Y15S, with -0.22 ± 0.028.

For Y15Q, the abundance fitness is -0.19 ± 0.034. Then Y15G, with -0.285 ± 0.037. As for Y15L, the abundance fitness is -0.117 ± 0.026. Regarding Y15V, the abundance fitness was -0.155 ± 0.035.

As to Y15A, the abundance fitness was -0.233 ± 0.052.

Turning to K5H, the abundance fitness stood at 0.005 ± 0.065.

As to K5G, the abundance fitness was -0.222 ± 0.033. Then K5A, with -0.042 ± 0.042; and K5P, with -0.22 ± 0.041. Then K5Y, with -0.072 ± 0.061; and K5Q, with -0.056 ± 0.045; and K5V, with -0.03 ± 0.039.

For K5R, the abundance fitness is -0.035 ± 0.026. Then K5C, with -0.003 ± 0.049.

With K5M, the abundance fitness was -0.069 ± 0.039. Then K5S, with -0.027 ± 0.034; and K5W, with -0.052 ± 0.03. Then K5D, with -0.156 ± 0.082; and K5N, with -0.029 ± 0.063. Then K5E, with -0.065 ± 0.056; and K5F, with -0.008 ± 0.061. As for K5I, the abundance fitness was -0.037 ± 0.05.

With G16W, the abundance fitness is -1.18 ± 0.13. Then G16K, with -1.08 ± 0.15; and G16L, with -0.901 ± 0.046. Then G16A, with -0.696 ± 0.046. Then G16R, with -1.08 ± 0.056; and G16I, with -0.911 ± 0.07; and G16V, with -0.847 ± 0.046. Consider G16H, for which the abundance fitness is -1 ± 0.15. Then G16Y, with -0.946 ± 0.099; and G16F, with -0.937 ± 0.071. G16S: the abundance fitness was -1.01 ± 0.054. As to G16E, the abundance fitness was -1.16 ± 0.12. Then G16D, with -0.927 ± 0.1; and G16M, with -0.965 ± 0.077. Then G16C, with -0.861 ± 0.06. Then G16T, with -0.954 ± 0.087; and G16N, with -0.98 ± 0.11.
